Measured values: patent US20150344570A1 (published 2015)
Substitutions are numbered along the chain they refer to. In names and notes the source's numbering stands.

What was measured:
FcgRIIaH [1] = biological target: T1, FcgRIIaH (human, UniProt P12318 34-217); test: SPR (Biacore); KD of H240-Kn033/H240-Hl033/L73-k0 divided by KD of the variant
T1 construct: extracellular domain; also called FcγRIIa H; FcγRIIa type H; not shown: His tag at the C terminus
T1 sequence (looked up): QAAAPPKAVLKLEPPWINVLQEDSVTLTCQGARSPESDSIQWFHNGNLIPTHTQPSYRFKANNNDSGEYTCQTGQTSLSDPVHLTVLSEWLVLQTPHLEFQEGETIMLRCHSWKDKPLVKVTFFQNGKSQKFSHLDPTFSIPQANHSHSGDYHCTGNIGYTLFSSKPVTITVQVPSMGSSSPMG
Protocol: (§1) Next, the amino acid at position 330 was examined. The A330M alteration has been introduced into H240-Hl076 of H240-Kn125/H240-Hl076/L73-k0. […] L73-k0 was used as the common antibody L chain. Binding of the produced variants to FcgRIa, FcgRIIaR, FcgRIIaH, FcgRIIb, FcgRIIIaF, and FcgRIIIaV was measured according to the method of Reference Example 8.
(§2) Analysis of interaction between objective antibody and the FcγR was carried out using Biacore T100 (GE Healthcare), Biacore T200, Biacore A100, and Biacore 4000. HBS-EP+ (GE Healthcare) was used as the running buffer, and the measurement temperature was set to 25° C. Chips produced by immobilizing the antigen peptide by the amine coupling method to a Series S sensor Chip CM5 (GE Healthcare), chips produced by allowing preliminarily biotinylated antigen peptides to interact with and immobilize onto a Series S Sensor Chip SA (certified) (GE Healthcare), chips produced by immobilizing Protein L (ACTIGEN, BioVision) to Series S Sencor Chip CM5 (GE Healthcare), or chips produced by immobilizing Protein A/G (Thermo Scientific) to Series S Sencor Chip CM5 (GE Healthcare) were used. Antibodies of interest were captured onto these chips, and allowed to interact to each FcγR diluted with running buffer. To regenerate and repeatedly use the chip, the antibodies captured onto the chip were washed off by reacting 10 mM glycine-HCl, pH 1.5.

FcgRIIIaF [2] = biological target: T2, FcgRIIIaF (human, UniProt P08637 17-208); test: as above
T2 construct: extracellular domain; Polymorphic site after J. Clin. Invest; also called FcγRIIIa F; 3aF; not shown: His tag at the C terminus
Protocol: as §1, §2

FcgRIIaR [3] = biological target: T3, FcgRIIaR (human, UniProt P12318 34-217); test: as above
T3 construct: extracellular domain; also called FcγRIIa R; FcγRIIa type R; not shown: His tag at the C terminus
T3 sequence (looked up): T1 sequence (looked up) with H134R
Protocol: as §1, §2

FcgRIIIaV [4] = biological target: T4, FcgRIIIaV (human, UniProt P08637 17-208); test: as above
T4 construct: extracellular domain; Polymorphic site after J. Clin. Invest; also called FcγRIIIa V; 3aV; not shown: His tag at the C terminus
Protocol: as §1, §2

FcgRIIb [5] = biological target: T5, FcgRIIb (human, UniProt P31994 43-217); test: as above
T5 construct: extracellular domain; also called FcγRIIb; 2b; not shown: His tag at the C terminus
T5 sequence (looked up): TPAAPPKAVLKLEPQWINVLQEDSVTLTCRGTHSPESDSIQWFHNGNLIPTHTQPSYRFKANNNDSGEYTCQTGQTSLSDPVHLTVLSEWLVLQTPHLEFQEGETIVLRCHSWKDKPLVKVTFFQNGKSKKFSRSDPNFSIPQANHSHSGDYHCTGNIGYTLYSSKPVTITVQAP
Protocol: as §1, §2

FcgRIIaH [6] = biological target: T1, FcgRIIaH; test: SPR (Biacore), antibody captured, FcgR extracellular domain as analyte
Protocol: as §1, §2

FcgRIIIaF [7] = biological target: T2, FcgRIIIaF; test: as above
Protocol: as §1, §2

FcgRIIaR [8] = biological target: T3, FcgRIIaR; test: as above
Protocol: as §1, §2

FcgRIa = biological target: T6, FcgRIa (human, UniProt P12314 16-292); test: as above
T6 construct: extracellular domain; also called FcγRIa; FcγRI; not shown: His tag at the C terminus
Protocol: as §1, §2

FcgRIIIaV [9] = biological target: T4, FcgRIIIaV; test: as above
Protocol: as §1, §2

FcgRIIb [10] = biological target: T5, FcgRIIb; test: as above
Protocol: as §1, §2

[11] = biological target: T7, FcγRIIa R (FcγRIIa allotype with Arg at position 131), extracellular domain with C-terminal His tag (human, UniProt P12318 34-217); test: SPR (Biacore T100), antibody captured on antigen peptide chip, FcγR as analyte; binding amount relative to control heterodimerized antibody
T7 chain: T1 sequence (looked up) with H134R
Protocol: (§3) The heterodimerized antibodies He Abs in which one of the H chains was introduced with an alteration were assayed for their binding activities to each activating FcγR and inhibitory FcγR according to the method described in Example 4. […] The activating FcγRs in FIGS. 26, 27, 28, and 29 are FcγRIa, FcγRIIa (R), FcγRIIa (H), and FcγRIIIa, respectively.
(§4) Analysis of interaction between objective antibody and the FcγR was carried out using Biacore T100 (GE Healthcare). HBS-EP+ (GE Healthcare) was used as the running buffer, and the measurement temperature was set to 25° C. Chips produced by immobilizing the antigen peptide by the amine coupling method to a Series S Sencor Chip CM5 (GE Healthcare), or alternatively, chips produced by allowing preliminarily biotinylated antigen peptides to interact with and immobilize onto a Series S Sensor Chip SA (certified) (GE Healthcare) were used. Antibodies of interest were captured onto an antigen peptide-immobilized chip, and allowed to interact to each FcγR diluted with running buffer. To regenerate and repeatedly use the chip, the antibodies captured on the chip were washed off by reacting 10 mM glycine-HCl, pH 1.5.

[12] = biological target: T8, FcγRIIb, extracellular domain with C-terminal His tag (human, UniProt P31994 43-217); test: as above
T8 construct: extracellular domain; also called FcgRIIb; 2b; not shown: His tag attached to the C terminus
T8 sequence (looked up): T5 sequence (looked up)
Protocol: as §3, §4

[13] = biological target: T7, FcγRIIa R (FcγRIIa allotype with Arg at …); test: SPR (Biacore T100); ratio of He/Con for FcγRIIa R to He/Con for FcγRIIb of the same antibody

T2 sequence (P08637 17-208): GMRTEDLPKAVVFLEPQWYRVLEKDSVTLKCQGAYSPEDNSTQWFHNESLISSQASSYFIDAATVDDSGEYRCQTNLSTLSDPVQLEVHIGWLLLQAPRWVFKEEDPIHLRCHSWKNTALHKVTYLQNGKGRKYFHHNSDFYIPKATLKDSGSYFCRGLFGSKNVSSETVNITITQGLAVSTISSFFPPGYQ
T4 sequence (P08637 17-208 F176V limits assumed): as the sequence (P08637 17-208) above, with F160V counted along it
T6 sequence (P12314 16-292): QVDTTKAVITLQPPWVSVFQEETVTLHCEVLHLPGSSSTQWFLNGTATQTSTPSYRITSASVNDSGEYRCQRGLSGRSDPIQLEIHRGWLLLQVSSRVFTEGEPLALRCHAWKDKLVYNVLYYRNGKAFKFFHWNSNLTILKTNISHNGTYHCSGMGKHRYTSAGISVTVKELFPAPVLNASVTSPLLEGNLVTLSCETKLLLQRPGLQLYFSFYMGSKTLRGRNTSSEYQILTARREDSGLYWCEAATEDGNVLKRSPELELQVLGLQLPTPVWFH

B1: H240-Kn125/H240-Hl217/L73-k0 (antibody, human IgG1, kappa)
heavy 1: QDQLVQSGAEVKKPGASVKVSCKASGFNIKDTYIQWVRQAPGQGLEWMGRIDPLRKQTKYREKFEGRVTITADTSTNTAYMELSSLRSEDTAVYYCVRSGREFDYWGQGTLVTVSSASTKGPSVFPLAPSSKSTSGGTAALGCLVKDYFPEPVTVSWNSGALTSGVHTFPAVLQSSGLYSLSSVVTVPSSSLGTQTYICNVNHKPSNTKVDKKVEPKSCDKTHTCPPCPAPEYQWGPMVFLFPPKPKDTLMISRTPEVTCVVVDVSDEEPEVKFNWYVDGVEVHNAKTKPREEQYNATYRVVSVLTVLHQDWLNGKEYKCKVSNKALPAPIEKTISKAKGQPREPQVCTLPPSRDELTKNQVSLWCLVKGFYPSDIAVEWESNGQPENNYKTTPPVLDSDGSFFLYSKLTVDKSRWQQGNVFSCSVMHEALHNHYTQKSLSLSP
heavy 2: QDQLVQSGAEVKKPGASVKVSCKASGFNIKDTYIQWVRQAPGQGLEWMGRIDPLRKQTKYREKFEGRVTITADTSTNTAYMELSSLRSEDTAVYYCVRSGREFDYWGQGTLVTVSSASTKGPSVFPLAPSSKSTSGGTAALGCLVKDYFPEPVTVSWNSGALTSGVHTFPAVLQSSGLYSLSSVVTVPSSSLGTQTYICNVNHKPSNTKVDKKVEPKSCDKTHTCPPCPAPELLGGPSVFLFPPKPKDTLMISRTPEVTCVVVDVSHEEPEVKFNWYVDGVEVHNAKTKPREEQYNSTYRVVSVLTVLHQDWLNGKEYKCKVSNDALPYPIEETISKAKGQPREPQVYTLPPSRCELTKNQVSLSCAVKGFYPSDIAVEWESNGQPENNYKTTPPVLDSDGSFFLVSKLTVDKSRWQQGNVFSCSVMHEALHNHYTQKSLSLSP
light: DIQMTQSPSSLSASVGDRVTITCRASQDIHKYIAWYQQKPGQAPRLLIQYTSTLQPGVPSRFSGSGSGTDYTFTISSLQPEDIATYYCLQYEQLRTFGGGTKVEIKRTVAAPSVFIFPPSDEQLKSGTASVVCLLNNFYPREAKVQWKVDNALQSGNSQESVTEQDSKDSTYSLSSTLTLSKADYEKHKVYACEVTHQGLSSPVTKSFNRGEC
fold 2aH (FcgRIIaH [1]): 4 fold | fold 3aF (FcgRIIIaF [2]): 121 fold | fold 2aR (FcgRIIaR [3]): 1.7 fold | fold 3aV (FcgRIIIaV [4]): 146 fold | fold 2b (FcgRIIb [5]): 0.9 fold | Kd (FcgRIIaH [6]): 130 nM | Kd (FcgRIIIaF [7]): 2.4 nM | Kd (FcgRIIaR [8]): 440 nM | Kd (FcgRIa): 0.076 nM | Kd (FcgRIIIaV [9]): 0.33 nM | Kd (FcgRIIb [10]): 3500 nM

B2: H240-Kn125/H240-Hl218/L73-k0 (antibody, human IgG1, kappa)
heavy 1: B1 heavy 1
heavy 2: B1 heavy 2 with Y329H
light: B1 light
fold 2aH (FcgRIIaH [1]): 4.7 fold | fold 3aF (FcgRIIIaF [2]): 112 fold | fold 2aR (FcgRIIaR [3]): 2.4 fold | fold 3aV (FcgRIIIaV [4]): 70.6 fold | fold 2b (FcgRIIb [5]): 1.1 fold | Kd (FcgRIIaH [6]): 110 nM | Kd (FcgRIIIaF [7]): 2.6 nM | Kd (FcgRIIaR [8]): 310 nM | Kd (FcgRIa): 0.092 nM | Kd (FcgRIIIaV [9]): 0.68 nM | Kd (FcgRIIb [10]): 2900 nM

B3: GpH7-A5/GpH7-B3 variant L328_13S/GpL16-k0 (heterodimerized antibody He Ab, L328S in one H chain) (antibody, human IgG1, kappa)
heavy 1: not shown
heavy 2: not shown
light: DIVMTQSPLSLPVTPGEPASISCQASESLVHSNRNTYLHWYLQKPGQSPQLLIYKVSNRFSGVPDRFSGSGSGTDFTLKISRVEAEDVGVYYCSQNTHVPPTFGQGTKVEIERTVAAPSVFIFPPSDEQLKSGTASVVCLLNNFYPREAKVQWKVDNALQSGNSQESVTEQDSKDSTYSLSSTLTLSKADYEKHKVYACEVTHQGLSSPVTKSFNRGEC
notes: Anti-glypican-3 human IgG1-type antibody; the alteration is in only one of the two H chains (the GpH7-B3 chain)
He/Con_2aR (IIaR binding) [11]: 117 relative binding activity, GpH7-A5/GpH7-B3/GpL16-k0 = 100 | He/Con_2b (IIb binding) [12]: 149 relative binding activity, GpH7-A5/GpH7-B3/GpL16-k0 = 100 | He_2aR/2b (IIaR/IIb) [13]: 0.78

B4: GpH7-A5/GpH7-B3 variant L328_18N/GpL16-k0 (heterodimerized antibody He Ab, L328N in one H chain) (antibody, human IgG1, kappa)
heavy 1: not shown
heavy 2: not shown
light: B3 light
notes: as for B3
He/Con_2aR (IIaR binding) [11]: 59.4 relative binding activity, GpH7-A5/GpH7-B3/GpL16-k0 = 100 | He/Con_2b (IIb binding) [12]: 80.8 relative binding activity, GpH7-A5/GpH7-B3/GpL16-k0 = 100 | He_2aR/2b (IIaR/IIb) [13]: 0.73

B5: GpH7-A5/GpH7-B3 variant L328_20W/GpL16-k0 (heterodimerized antibody He Ab, L328W in one H chain) (antibody, human IgG1, kappa)
heavy 1: not shown
heavy 2: not shown
light: B3 light
notes: as for B3
He/Con_2aR (IIaR binding) [11]: 155 relative binding activity, GpH7-A5/GpH7-B3/GpL16-k0 = 100 | He/Con_2b (IIb binding) [12]: 235 relative binding activity, GpH7-A5/GpH7-B3/GpL16-k0 = 100 | He_2aR/2b (IIaR/IIb) [13]: 0.66

B6: GpH7-A5/GpH7-B3 variant I332_11K/GpL16-k0 (heterodimerized antibody He Ab, I332K in one H chain) (antibody, human IgG1, kappa)
heavy 1: not shown
heavy 2: not shown
light: B3 light
notes: as for B3
He/Con_2aR (IIaR binding) [11]: 43.1 relative binding activity, GpH7-A5/GpH7-B3/GpL16-k0 = 100 | He/Con_2b (IIb binding) [12]: 70.9 relative binding activity, GpH7-A5/GpH7-B3/GpL16-k0 = 100 | He_2aR/2b (IIaR/IIb) [13]: 0.61

B7: GpH7-A5/GpH7-B3 variant L328_15Y/GpL16-k0 (heterodimerized antibody He Ab, L328Y in one H chain) (antibody, human IgG1, kappa)
heavy 1: not shown
heavy 2: not shown
light: B3 light
notes: as for B3
He/Con_2aR (IIaR binding) [11]: 136 relative binding activity, GpH7-A5/GpH7-B3/GpL16-k0 = 100 | He/Con_2b (IIb binding) [12]: 193 relative binding activity, GpH7-A5/GpH7-B3/GpL16-k0 = 100 | He_2aR/2b (IIaR/IIb) [13]: 0.7
